Assay [1] has as its target Respiratory Syncytial Virus fusion glycoprotein (RSV F) on RSV-A2 virus (Respiratory Syncytial Virus subtype A (RSV-A2)). Briefly: cell-based or functional assay.
Assay [2] deals with RSV postfusion F (postF), F deltaFP (Respiratory Syncytial Virus). In words: BLI, IgG on anti-human IgG sensor, 100 nM antigen. (BLI is a label-free optical method that tracks binding on a fibre tip over time.)
Assay [3] has as its target RSV prefusion F (preF), DS-Cav1 (Respiratory Syncytial Virus). Briefly: BLI, IgG on anti-human IgG sensor, 100 nM antigen.

In general, Kd refers to the equilibrium constant for the complex coming apart.

B1: ADI-41194 (antibody, V domains shown)
VH: QVQLQESGPGLVKPSQMLSLTCTVSGDSISSGDYYWSWIRHHPGKGLEWIGYISYSGSTYNNPSLKSRVTVSVDTSKNQFFLKLTSVTAADTAVYYCARATKPYHSYFYMDVWGKGTTVTVSS
VL: EIVLTQSPGTLSLSPGERATLSCRASQSGSRSYLAWYQQRPGQAPRLLIYGASNRATGIPDRFSGSGSGTDFTLTISRLEPEDFAVYYCQQYGNAPTFGGGTKVDIK
B1 gave a Neutralization IC50 (RSV subtype A) in assay [1] above 25 µg/mL. In assay [2], this molecule had an equilibrium dissociation constant (Kd) of 1.16 nM.

B2: ADI-41149 (antibody, V domains shown)
VH: QVQLVQSGGGVVQPGRSLRLSCAASGFTFSDYGMHWVRQAPGKGLEWVAVIWFDGSNKNYADSVKGRFTISRDNSMNTLYLQMNNLRAEDTAVYYCARAPYSFWSGYYLDYWGQGSLVTVSS
VL: DIVMTQSPATLSVSPGERATLSCRASQSISSNLAWYQQKSGQAPRLLIYGASTRATGIPARFSGSGSGTEFTLTISSLQSEDFAVYSCQQYSKWPQTFGQGTKVEIK
In assay [1], B2 registered a Neutralization IC50 (RSV subtype A) above 25 µg/mL. For the same molecule, the dissociation constant (Kd) in assay [2] turned out to be 0.857 nM; in assay [3] it was 4.34 nM.

B3: ADI-41159 (antibody, V domains shown)
VH: EVQLVESGAEVKKPGESLKISCKGSGYSFTTYWIGWVRQMPGKGLEWMGIMYPGDSQTRYSPSFQGQVTISADKSISTAYLQWSSLKASDTAMYYCARGGYCSGGSCYRGLDYWGQGTLVTVSS
VL: EIVMTQSPSSLSASVGDRVTITCRASQSISSFLNWYQQKPGKAPNLLIYAASSLLSGVPSRFSGSGSGTDFTLTISSLQPEDFATYYCQQSHSTPQTFGQGTKLEIK
In assay [1], B3 had a Neutralization IC50 (RSV subtype A) above 25 µg/mL. Further, in assay [2], the Kd stood at 9.87 nM.

B4: ADI-41160 (antibody, V domains shown)
VH: QVQLVQSGAEVKKPGSSVKVSCKASGGTFSSYPIIWVRQAPGQGLEWMGRIIPILGIASYAQKFQGRVTITADKSTSTAYMELSSLRSEDTAVYYCARNSDFYYGMDVWGQGTTVTVSS
VL: QSALIQPASVSGSPGQSITISCTGTSSDVGGYNYVSWYQHHPGKAPKLMIYDVSNRPSGISNRFSGSKSGNTASLTISGLQAEDEADYYCSSYTSSSLYVFGTGTKVTVL
In assay [1], B4 displayed a Neutralization IC50 (RSV subtype A) above 25 µg/mL. The Kd is 0.337 nM in assay [2] and 2.41 nM in assay [3].

B5: ADI-41144 (antibody, V domains shown)
VH: EVQLVQSGAEVKKPGGSVKVSCKASGYTFSEYYMHWVRQAPGQGPEWVGRINPKSGRTNYAQNFQGRVTMTRDRSISTVYMDLSRLRSDDTAVYYCARWEVMDYGSGIYYNQDHFDYWGQGTLVTVSS
VL: DIRVTQSPSSLSASVGDRVTITCRASQDITNYLAWFQQKPGKAPKSLMYAASTLQSGVPSRFSGSGSGTDFTLTISSLQPEDFATYYCQQYKTYPITFGQGTRLEIK
In the case of B5, in assay [1], the Neutralization IC50 (RSV subtype A) was 0.37 µg/mL. In addition, the Kd in assay [2] worked out at 0.759 nM; in assay [3] it was 0.94 nM.

B6: ADI-41162 (antibody, V domains shown)
VH: EVQLVQSGAEVKKPGSSVKVSCKASGVTGGTFSSYAISWVRQAPGQGLEWMGGIMPMFGTTNYAQKFQGRVTITADKSTSTAYMELSSLRSEDTAVYYCARDYRDFSPHLDYYYMDVWGKGTTVTVSS
VL: DIRLTQSPGTLSLSPGERATLSCRASQSVSTSYLAWYQQKPGQAPRLLIYGASNRATGIPDRFSGSGSGTDFTLTISRLEPEDFAVYYCQQYGRTSWTFGQGTKVDIK
For B6, the Neutralization IC50 (RSV subtype A) in assay [1] was above 25 µg/mL. Further, the results for the Kd in assay [2] and in assay [3] were 0.748 nM and 4.06 nM, respectively.

B7: ADI-41153 (antibody, V domains shown)
VH: EVQLVESGGGLVKPGGSLRLSCAASQFTFSTYDMSWVRQAPGKGLEWVASISSGSTYIYYADSVKGRFTISRDNAKHSLFLQMKSLRAEDTALYYCARQVLYDRGGYYLYYFDHWGQGTLVTVSS
VL: DIQVTQSPSSLSASVGDRVTITCRASQTIASYLNWYQQKPGKAPNLLIYAASNLQSGVPSRFSGSGSGTEFTLTINTLQPEDFATYYCQQSYNFPYTFGQGTKVEIK
With B7, the Neutralization IC50 (RSV subtype A) in assay [1] was above 25 µg/mL. The Kd in assay [2] stood at 0.445 nM; in assay [3] it was 0.928 nM.

B8: ADI-41218 (antibody, V domains shown)
VH: QVQLVQSGAEVKKPGASVKVSCKASGYTFISDGISWVRQAPGQGLEWMGWINPHNENTNYAQKFQGRVTMTTDTSTSTAYLELRGLRSDDTAVYYCARDPYHWSYLDYWGQGTLVTVSS
VL: QSVVTQPPSVSGAPGQRVTITCTGSSSNIGANSDVHWYQQIPGTAPKLLIFGNSNRPSGVPDRFSGSKSGTSASLAITGLQAEDEADYYCQSYDRSLSGSRVFGGGTRLTVL
Turning to B8, in assay [1], the Neutralization IC50 (RSV subtype A) is above 25 µg/mL. For the same molecule, the Kd in assay [2] is 0.729 nM.

B9: ADI-41223 (antibody, V domains shown)
VH: QVQLVESGGGVVQPGRSLRISCAASGFTFSNYGMHWVRQAPGKGLEWVAVLSYDGSNEYYADSVKGRFTISRDNSKNTLYLQMNSLRAEDTAVYYCAKNLNDYNISWYKCFDLWGRGTLVTVSS
VL: QPVLTQPASVSGSPGQSITISCTGTSSDVGGYNYVSWYQHHPGKAPKLIIYDVNNRPSGVSNRFSGSKSGNTASLTISGLQAEDEADYICSSYTTITTFVVFGGGTKLTVL
Take B9: the Neutralization IC50 (RSV subtype A) in assay [1] was above 25 µg/mL. This molecule also came in with a Kd in assay [2] of 1.81 nM.

B10: ADI-41164 (antibody, V domains shown)
VH: QVQLVQSGGDLVQPGGSLRLSCAASGFTFSDYEVNWVRQAPGKGLEWLSYISSSGRIIHYADSVRGRFTISRDNAKNSLYLQMNSLRAEDTAVYYCARAAGQWLVTYYYYGMDVWGQGTTVTVSS
VL: QSVMTQSPSTLSASVGDTVTITCRASQSIINRLAWYQQKPGKPPKLLIYKSSSSESGVPSKFSGSGSGTEFTLTINSLQPDDFATYYCQHYNSYLYTFGQGTKVEIK
For B10, the Neutralization IC50 (RSV subtype A) in assay [1] is above 25 µg/mL. This molecule also yielded a Kd in assay [2] of 0.962 nM.

B11: ADI-41219 (antibody, V domains shown)
VH: EVQLVESGGGLVQPAGSLRLSCAASGFTFSNYVMNWVRQAPGKGLEWVSYISSSGRTIHYADSVKGRFTISRDNAKNSLYLEMNSLRAEDTAVYYCARDPNYGGNSNRFDSWGQGTLVTVSS
VL: DIVMTQTPSSLSASVGDRVTITCRASQTISNYLNWYQQKPGKAPKLLIFAASSLQSGVPSRFSGSGSGTDFTLTISSLQPEDFATYYCQQSYSAPRVTFGPGTKVDIK
As for B11, in assay [1], the Neutralization IC50 (RSV subtype A) is above 25 µg/mL. Moreover, in assay [2], the Kd came to 1.28 nM.

B12: ADI-41146 (antibody, V domains shown)
VH: QVQLVQSGAEVKKPGESLKISCKGSGHSFATFWIGWVRQVPGNGLELMGIINLGDSDTKYSPSFQGQVTISADESIGTAYLQWSSLKASDTAMYYCARVSLPHYYYYMDVWGKGTTVTVSS
VL: DIVMTQSPSSVSASVGDRVTITCRASQGISTWLAWYRQKPGKAPELLIYAASRLQSGVPSRFSGSGSGTDFTLTISSLQPEDFATYYCQQANSFLGAFGPGTKLEIK
Take B12: the Neutralization IC50 (RSV subtype A) in assay [1] is above 25 µg/mL. Further, the Kd in assay [2] was 0.746 nM; in assay [3], 4.44 nM.

B13: ADI-41174 (antibody, V domains shown)
VH: EVQLVESGAEVEKPGASVKVSCKASGYTFINYDIIWVRQAPGQGLEWMGWISGYKGNTNYAQKLQGRITMSTDTSTRTAYMELRSLTSDDTAVYYCARVGGTARSTTPYYYGMDVWGQGTTVTVSS
VL: SYVLTQPPSVSVSPGQTARITCSGDAVPKQFSYWYQQKPGQAPVLVIYKDIERPSGIPERFSGSSSGTTVTLTISGVQAEDEADYYCQSAHTSGTYHVFGTGTKLTVL
Turning to B13, the Neutralization IC50 (RSV subtype A) in assay [1] is above 25 µg/mL. The Kd in assay [2] worked out at 0.751 nM.

B14: ADI-41176 (antibody, V domains shown)
VH: EVQLVESGPGLVKPSETLSLTCTVSGGSIGNDYYYWGWIRQPPGKGLEWIGNISYSGSTYYNPSLKSRVTISVGTSKNQFSLKLTSVSAADTAVYHCVGRTFWRDCSSTSCYEYYFDYWGQGTLVTVSS
VL: ETTLTQSPTSLSASVGDRVTITCRASQGISNYLAWYQQKPGKVPKVLIYAASTLQSGVSSRFSGSGSGTGFTLTISNLQPEDVATYYCQNYNSAPWTFGQGTKVEIK
Molecule B14 had a Neutralization IC50 (RSV subtype A) in assay [1] above 25 µg/mL. Further, the Kd in assay [2] was determined as 4.07 nM.

B15: ADI-41154 (antibody, V domains shown)
VH: QVQLQQWGAGLSKPSETLSVTCAVYGGSLSGHYWSWFRQPPGKGLEWIGEIDHSGSTTYNPSLKSRVTISVDTSKNQFSLKLTSVTAADTAMYYCARATRYNYGYTFDYWGQGTLVTVSS
VL: DIPLTQSPSSLSASVGDRVTITCRASQIISSYLNWYQQKPGKAPKLLIYAASTLQSGVPSRFSGSRSGTDFTLTISSLQPEDFASYYCQQSYIIPFTFGPGTKVEIK
In assay [1], B15 displayed a Neutralization IC50 (RSV subtype A) above 25 µg/mL. Also, the figures for the Kd in assay [2] and in assay [3] were 1.35 nM and 4.63 nM, respectively.

B16: ADI-41163 (antibody, V domains shown)
VH: QVQLVQSGGGVVQPGRSLRLSCAASGFPFHSYAMHWVRQAPGKGLEWVAVIWYEGSEKHYADSVQGRFTISRDNSKNMLYLQMNNLRVADTAVYYCARRGAWGFDIWGQGTTVTVSS
VL: DIVMTQTPLSLPVTPGEPASISCRSSQSVLHSTGYNSLDWYLQKPGQSPQLLIFLGSNRASGVPDRFSGSGSGTDFTLKISRVEAEDVGVYYCMQGLQTPYTFGQGTKVEIK
Regarding B16, the Neutralization IC50 (RSV subtype A) in assay [1] is above 25 µg/mL. Further, the Kd in assay [2] is 0.604 nM; in assay [3] it was 4.65 nM.

B17: ADI-41155 (antibody, V domains shown)
VH: QVQLQESGPGLVKPSETLSLTCTVSGGSIGNNFYYWGWIRQPPGKGLEWIGSIYYSGTTYDNPSLKSRVTISVEPSKNQFSLKLSSVTAADTAVYHCARRYCDSTRCYEAFDIWGQGTTVTVSS
VL: SYELTQPPSASGTPGQRVTISCSGSSSNIGSNYVSWYQQLPGTAPKLLIYKNDQRPSGVPDRFSGSKSGTSASLAISGLRSEDEAEYYCAAWDDSLSGFYVFGTGTKVTVL
For the molecule B17, in assay [1], the Neutralization IC50 (RSV subtype A) was above 25 µg/mL. The Kd in assay [2] stood at 0.478 nM; in assay [3], 3.52 nM.

B18: ADI-41161 (antibody, V domains shown)
VH: EVQLVESGGGLVQPGGSLRLSCAASGFTFSTFEFNWVRQAPGKGLEWLSYISSDDTTRYYADSVKGRFTISRDNAKNSLYLQMNSLRAEDTAYYYCVRGGPYDYVWGTYRYFDFWGQGTLVTVSS
VL: QSVLTQPASVSGSPGQSITISCTGTSSDIGGYNYVSWYQQHPGKAPKLMIYDVTNRPLGVSNRFSGSKSGNTASLIISGLQAEDEAEYYCCSYTSSNSLVFGGGTKLTVL
B18 showed a Neutralization IC50 (RSV subtype A) in assay [1] above 25 µg/mL. Further, the Kd in assay [2] was 0.364 nM; in assay [3] it was 2.54 nM.

These data come from patent US20260258115A1.
